± gives the uncertainty stated by the source.
Test: self-splicing fitness, log relative to wild type (ln ratio); higher = more splicing; Tetrahymena group I intron in knt gene, E. coli kanamycin selection, DiMSum; sequences stand for … in CUCUCU…GGAGGGAAAAGUUAUCAGGCAUGCACCUGGUAGCUAGUCUUUAAACCAAUAGAUUGCAUCGGUUUAAAAGGCAAGACCGUCAAAUUGCGGGAAAGGGGUCAACAGCCGUUCAGUACCAAGUCUCAGGGGAAACUUUGAGAUGGCCUUGCAAAGGGUAUGGUAAUAAGCUGACGGACAUGGUCCUAACCACGCAGCCAAGUCCUAAGUCAACAGAUCUUCUGUUGAUAUGGAUGCAGUUCACAGACUAAAUGUCGGUCGGGGAAGAUGUAUUCUUCUCAUAAGAUAUAGUCGGACCUCUCCUUAAUGGGAGCUAGCGGAUGAAGUGAUGCAACACUGGAGCCGCUGGGAACUAAUUUGUAUGCGAAAGUAUAUUGAUUAGUUUUGGAGUACUCGUGGUCG
Outline: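 A randomised library covering all eight P1ex-region intron nucleotides was built with the intron in the knt kanamycin-resistance gene on pET-22b(+) and held in E. coli BL21(DE3). Cells were grown overnight at 37°C or 30°C on LB agar, with or without 25 μg/mL kanamycin, plus 100 μg/mL carbenicillin, 50 μM IPTG and 0.2% rhamnose, and pooled colonies were amplicon-sequenced on an Illumina HiSeq 2500. DiMSum fitness is the error-weighted combination of wild-type-normalised replicate fold changes, kanamycin versus none.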

Row | Sequence | self-splicing fitness (ln) (30 °C) | self-splicing fitness (ln) (37 °C)
1 | ACAAAGCAAUAUUACGCGUA | -1.4 ± 0.099 | -0.512 ± 0.097
2 | ACAAAGCAAUAUUACGCUCU | -1.09 ± 0.063 | -0.102 ± 0.095
3 | ACAAAGCAAUAUUACGGCUG | -0.524 ± 0.069 | -0.277 ± 0.088
4 | ACAAAGCAAUAUUACGGCUU | -0.982 ± 0.084 | -0.814 ± 0.12
5 | ACAAAGCAAUAUUACGGUAG | -3.48 ± 0.16 | -3.21 ± 0.24
6 | ACAAAGCAAUAUUACGGUCA | -0.595 ± 0.069 | -0.472 ± 0.07
7 | ACAAAGCAAUAUUACGUAAA | -2.08 ± 0.069 | -0.302 ± 0.092
8 | ACAAAGCAAUAUUACGUAGC | -2.35 ± 0.086 | -2.01 ± 0.12
9 | ACAAAGCAAUAUUACGUCAU | -3.08 ± 0.12 | -2.4 ± 0.14
10 | ACAAAGCAAUAUUACGUCUU | -0.827 ± 0.051 | -0.41 ± 0.064
11 | ACAAAGCAAUAUUACGUGUA | -2.6 ± 0.1 | -1.56 ± 0.084
12 | ACAAAGCAAUAUUACGUUCC | -2.06 ± 0.11 | -1.73 ± 0.15
13 | ACACAGCAAUAUUACGAAUG | -2.63 ± 0.1 | -1.08 ± 0.084
14 | ACACAGCAAUAUUACGACAU | -0.676 ± 0.01 | -0.0836 ± 0.031
15 | ACACAGCAAUAUUACGAGUC | -5.36 ± 0.27 | -3.05 ± 0.19
16 | ACACAGCAAUAUUACGCACU | -0.282 ± 0.045 | 0.182 ± 0.058
17 | ACACAGCAAUAUUACGCAUC | -3.23 ± 0.21 | -0.58 ± 0.094
18 | ACACAGCAAUAUUACGCCCC | -1.66 ± 0.14 | -0.901 ± 0.15
19 | ACACAGCAAUAUUACGCCCG | -0.876 ± 0.092 | -0.533 ± 0.12
20 | ACACAGCAAUAUUACGCGAC | -2.72 ± 0.098 | -2.15 ± 0.11
21 | ACACAGCAAUAUUACGCGGC | -2.29 ± 0.12 | -2.92 ± 0.16
22 | ACACAGCAAUAUUACGCGGU | -4.42 ± 0.23 | -2.89 ± 0.17
23 | ACACAGCAAUAUUACGCUCG | -0.365 ± 0.064 | 0.194 ± 0.085
24 | ACACAGCAAUAUUACGGAAG | -3.07 ± 0.14 | -1.12 ± 0.11

From the supplement of paper PMC7877785
